Key:
[1] = molecular target: Cdk2/cyclin A complex (T160-phosphorylated full-length human Cdk2 and truncated human cyclin A2, residues 173-432) (human) (UniProt P24941); assay: ITC
[2] = molecular target: Cdk2/cyclin A complex (T160-phosphorylated full-length human Cdk2 and truncated human cyclin A2, residues 173-432) (human) (UniProt P24941)

Sequence of peptide corresponding to sub-domain D1C (p21 residues 139-160) (P38936 139-160): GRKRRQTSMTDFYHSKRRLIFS

Kd [1] | IC50 of inhibition of Cdk2/cyclin A kinase activity, substrate Histone H1 [2] | IC50 of inhibition of Cdk2/cyclin A kinase activity, substrate Rb-C [2] | Substance
0.208 µM | – | – | peptide corresponding to sub-domain D1C (p21 residues 139-160) (from UniProt P38936 139-160)
– | 0.0554 µM | 0.0228 µM | p21-KIDC-Y77E (from UniProt P38936 25-164) (domain or fragment)
– | 0.0234 µM | 0.0199 µM | p21-FL-Y77E (from UniProt P38936 1-164) (natural protein)
– | 0.0681 µM | 0.0466 µM | p21-KIDN-Y77E (from UniProt P38936 9-84) (domain or fragment)

— PMC4297576
